Consider one protein from PMC6720645, “Structural and Functional Properties of the Capsid Protein of Dengue and Related Flavivirus” (International Journal of Molecular Sciences, 2019).

This data set deals with the molecule itself. The data set can be described thus: time-resolved fluorescence anisotropy. Background: Fluorescence polarisation rises when a labelled molecule tumbles more slowly, as on binding a larger partner.

B1: Dengue virus serotype 2 capsid protein (natural protein)
chain: MNNQRKKARNTPFNMLKRERNRVSTVQQLTKRFSLGMLQGRGPLKLFMALVAFLRFLTIPPTAGILKRWGTIKKSKAINVLRGFRKEIGRMLNILNRRRR
notes: also called DENV C; C protein
With B1, the binding result was “binds”.
